For 1 substance, Kd results are on record in patent publication US20210024596A1.

For one assay, the target named is histone H4 (human) (UniProt P62805). The assay is described as follows: SPR kinetic assay, ligand H4 captured on the chip, analyte prothrombin fragment 1 at 1.0-6.0 µM.
The next assay concerns the target histone H3 (human) (UniProt P68431). As to the kind of experiment: SPR kinetic assay, ligand H3 captured on the chip, analyte prothrombin fragment 1 at 1.0-6.0 µM.

“recombinant human prothrombin fragment 1 (from UniProt P00734 44-198)”: the Kd in the assay with histone H4 (human) is 0.896 µM; in the assay with histone H3 (human), 2.35 µM.
